From patent US20040141978A1 (PHARMACIA AND UPJOHN, published 2004)
One block for each molecule: values may come before it.

Columns and labels:
[1] = biological target: Angiostatin + Binding Domain (UniProt P00747); test: cell-based or functional assay
p53 + Binding Domain = test: cell-based or functional assay
ABP-1 = biological target: T1, ABP-1 (human, UniProt Q4VCS5 410-1084); test: fluorescence microscopy, FITC-labelled angiostatin (10 ug/ml) on live HeLa cells transfected with ABP-1
T1 construct: also called angiostatin receptor
T1 sequence: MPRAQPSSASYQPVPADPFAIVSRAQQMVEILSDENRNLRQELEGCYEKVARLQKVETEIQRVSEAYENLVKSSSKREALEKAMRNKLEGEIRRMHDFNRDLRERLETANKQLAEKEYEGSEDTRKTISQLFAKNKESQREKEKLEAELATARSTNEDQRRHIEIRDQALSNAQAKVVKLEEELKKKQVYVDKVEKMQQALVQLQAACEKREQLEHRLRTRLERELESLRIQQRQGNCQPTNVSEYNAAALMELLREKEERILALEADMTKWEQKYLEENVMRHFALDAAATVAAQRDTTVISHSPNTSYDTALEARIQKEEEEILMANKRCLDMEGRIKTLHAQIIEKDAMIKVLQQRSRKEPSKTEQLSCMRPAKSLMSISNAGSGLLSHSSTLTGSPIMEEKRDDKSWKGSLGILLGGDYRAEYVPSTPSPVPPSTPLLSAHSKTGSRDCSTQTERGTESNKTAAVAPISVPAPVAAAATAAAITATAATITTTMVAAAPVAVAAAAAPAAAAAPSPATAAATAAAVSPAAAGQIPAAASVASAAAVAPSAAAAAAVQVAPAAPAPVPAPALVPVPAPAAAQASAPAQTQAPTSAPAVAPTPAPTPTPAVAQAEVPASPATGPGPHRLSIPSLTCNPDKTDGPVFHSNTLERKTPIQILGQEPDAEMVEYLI

Chain of Angiostatin + Binding Domain (P00747 whole entry, the tested form may be a part): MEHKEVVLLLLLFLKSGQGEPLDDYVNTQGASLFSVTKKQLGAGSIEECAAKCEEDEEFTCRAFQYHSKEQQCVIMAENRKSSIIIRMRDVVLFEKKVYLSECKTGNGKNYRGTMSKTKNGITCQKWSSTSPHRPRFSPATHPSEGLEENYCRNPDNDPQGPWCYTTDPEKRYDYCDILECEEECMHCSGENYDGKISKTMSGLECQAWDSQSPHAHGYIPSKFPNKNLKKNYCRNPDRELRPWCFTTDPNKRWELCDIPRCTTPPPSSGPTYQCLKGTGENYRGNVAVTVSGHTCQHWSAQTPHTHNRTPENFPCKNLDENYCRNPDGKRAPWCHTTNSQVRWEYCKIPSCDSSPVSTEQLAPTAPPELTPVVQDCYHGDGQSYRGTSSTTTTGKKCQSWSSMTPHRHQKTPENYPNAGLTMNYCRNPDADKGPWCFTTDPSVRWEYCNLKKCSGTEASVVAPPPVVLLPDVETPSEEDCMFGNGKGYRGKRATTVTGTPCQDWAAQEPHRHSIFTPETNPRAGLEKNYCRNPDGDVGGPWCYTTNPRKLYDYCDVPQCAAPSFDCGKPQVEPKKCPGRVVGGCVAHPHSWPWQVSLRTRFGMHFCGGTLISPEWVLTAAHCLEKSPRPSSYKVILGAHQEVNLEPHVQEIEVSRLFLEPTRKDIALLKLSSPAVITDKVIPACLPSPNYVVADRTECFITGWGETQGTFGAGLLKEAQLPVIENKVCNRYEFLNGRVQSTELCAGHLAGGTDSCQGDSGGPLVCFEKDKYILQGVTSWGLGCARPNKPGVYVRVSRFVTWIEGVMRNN

β-Gal Activity [1]: < 0.04 u
Molecule: Activation Domain alone (from UniProt P04386 768-881)

Molecule: SV40LT - Activation Domain (from UniProt P03070 84-708)
β-Gal Activity (p53 + Binding Domain): 90 u

binding result (ABP-1): binds
B1: human angiostatin (kringle domains 1-4 of plasminogen) (ligand, UniProt P00747 99-459, looked up)
chain: YLSECKTGNGKNYRGTMSKTKNGITCQKWSSTSPHRPRFSPATHPSEGLEENYCRNPDNDPQGPWCYTTDPEKRYDYCDILECEEECMHCSGENYDGKISKTMSGLECQAWDSQSPHAHGYIPSKFPNKNLKKNYCRNPDRELRPWCFTTDPNKRWELCDIPRCTTPPPSSGPTYQCLKGTGENYRGNVAVTVSGHTCQHWSAQTPHTHNRTPENFPCKNLDENYCRNPDGKRAPWCHTTNSQVRWEYCKIPSCDSSPVSTEQLAPTAPPELTPVVQDCYHGDGQSYRGTSSTTTTGKKCQSWSSMTPHRHQKTPENYPNAGLTMNYCRNPDADKGPWCFTTDPSVRWEYCNLKKCSGTEA
modifications: FITC-labelled in the cell binding assay of FIG. 9C
notes: domain: kringle domains 1-4; Used unlabelled in the pull-down and kinase assays, FITC-labelled on transfected HeLa cells; also called K1-K4; FITC-labelled angiostatin
